# From PMC10144430 (Viruses, 2023)
# B1: soluble nectin-1 (receptor)
# chain: QVVQVNDSMYGFIGTDVVLHCSFANPLPSVKITQVTWQKSTNGSKQNVAIYNPSMGVSVLAPYRERVEFLRPSFTDGTIRLSRLELEDEGVYICEFATFPTGNRESQLNLTVMAKPTNWIEGTQAVLRAKKGQDDKVLVATCTSANGKPPSVVSWETRLKGEAEYQEIRNPNGTVTVISRYRLVPSREAHQQSLACIVNYHMDRFKESLTLNVQYEPEVTIEGFDGNWYLQRMDVKLTCKADANPPATEYHWTTLNGSLPKGVEAQNRTLFFKGPINYSLAGTYICEATNPIGTRSGQVEVNITEFPYTPSPPEHGRRAGPVPTA
# notes: source: baculovirus-infected insect cells (Sf9), purified
# Key:
# [1] = molecular target: T1, gDL268N_(306t), soluble gD L268N truncated at residue 306 ( (herpes simplex virus; …, UniProt Q69467 26-331, L268N); assay: SPR; Biacore 3000, room temperature, HBS-EP; gD captured via Mab 1D3 on a CM5 chip; soluble nectin-1 injected 300 s at 5 uL/min (also pre-mixed with 1 mM TCEP, binding unaffected); settings: both partners purified
# T1 construct: source: 293T cells, transfected, purified from supernatant (Ni-NTA resin)
# [2] = molecular target: T2, cys2_(306t), soluble disulfide-bonded gD mutant (K190C-A277C) truncated at position 306 ( (herpes simplex virus)); …, UniProt Q69467 26-331, K190C | A277C, engineered disulfide bond Cys190-Cys277 (reduced where TCEP was added)); assay: as above; settings: both partners purified
# T2 construct: also called gD cys2; cy2; source: 293T cells, transfected, purified from supernatant (nickel column); not shown: His6, C-terminal, kept
binder,measurement,setting,value
B1,"nectin-1 binding, % of wt",[1],~50 % of wt
same,"nectin-1 binding, % of wt",[2],~40 % of wt
